Test results as given in paper PMC7719794.

Target: chicken CD8αα homodimer (chicken)
Assay: crystal structure; sitting-drop vapour diffusion at 291 K, 10 mg/ml; cCD8αα and pMHC-I mixed at a 2:1 molar ratio at 277 K overnight; three crystals: pBF2*1501, cCD8αα/pBF2*1501, cCD8αα/pBF2*0401; two complexes (A and B) in the asymmetric unit of each co-crystal

Substance: chicken CD8αα homodimer (receptor)
- stoichiometry N: 2
